Values of other authors, collected in publication PMC11899465.
Read-outs that look alike come from different tables or passages of the source.

Tests used:
CD137 (Homo sapiens) [1] = target: CD137 (Homo sapiens) (UniProt Q07011)
CD137 (Homo sapiens) [2] = target: CD137 (Homo sapiens) (UniProt Q07011); remark: listed apart in the source

Sequence of CD137 (Homo sapiens) (Q07011 24-255): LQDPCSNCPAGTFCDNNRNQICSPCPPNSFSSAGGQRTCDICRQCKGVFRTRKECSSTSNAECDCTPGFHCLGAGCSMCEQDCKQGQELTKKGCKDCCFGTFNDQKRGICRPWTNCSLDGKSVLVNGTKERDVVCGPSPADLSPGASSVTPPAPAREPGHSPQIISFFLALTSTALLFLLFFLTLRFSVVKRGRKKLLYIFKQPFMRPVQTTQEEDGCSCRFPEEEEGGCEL
Sequence of CD137L (monomer) (P41273 whole entry): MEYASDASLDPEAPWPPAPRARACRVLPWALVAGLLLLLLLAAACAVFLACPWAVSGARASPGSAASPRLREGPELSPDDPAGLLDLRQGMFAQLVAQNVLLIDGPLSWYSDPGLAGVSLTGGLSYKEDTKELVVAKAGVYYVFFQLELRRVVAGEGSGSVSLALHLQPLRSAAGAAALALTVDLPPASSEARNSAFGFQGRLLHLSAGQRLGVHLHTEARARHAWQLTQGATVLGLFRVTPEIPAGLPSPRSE
Sequence of CD137L (homotrimer) (P41273 whole entry): as above

Kd (CD137 (Homo sapiens) [1]) [nM] | Kd (CD137 (Homo sapiens) [2]) [nM] | Substance
1.2 |  | CD137L (homotrimer) (from UniProt P41273)
 | 55.2 | CD137L (monomer) (from UniProt P41273)
